The values that follow come from patent US20140004122A1, “METHODS FOR TREATING OR PREVENTING CHOLESTEROL RELATED DISORDERS” (AMGEN INC., priority 2011, published 2014).

Assay [1] has as its target D374Y PCSK9 binding to LDLR (Homo sapiens, UniProt Q8NBP7, D374Y). As to the kind of experiment: Large scale receptor ligand blocking screen and functional classification of ABPs. As to conditions: functional assays of the screening. As for the experimental part:
To screen for the antibodies that block PCSK9 binding to LDLR an assay was developed using the D374Y PCSK9 mutant. […] The following protocol was employed in the receptor ligand blocking screen: Costar 3702 medium binding 384 well plates (Corning Life Sciences) were employed in the screen. The plates were coated with goat anti-LDLR (R&D Cat #AF2148) at 2 μg/ml in 1×PBS/0.05% Azide at a volume of 40 μl/well. The plates were incubated at 4° C. overnight. The plates were then washed using a Titertek plate washer (Titertek, Huntsville, Ala.). A 3-cycle wash was performed. The plates were blocked with 90 μl of 1×PBS/1% milk and incubated approximately 30 minutes at room temperature. The plates were then washed using the Titertek plate washer. A 3-cycle wash was performed. The capture sample was LDLR (R&D, Cat #2148LD/CF), and was added at 0.4 μg/ml in 1×PBS/1% milk/10 mM Ca^2+ at a volume of 40 μl/well. The plates were then incubated for 1 hour and 10 minutes at room temperature. Contemporaneously, 20 ng/ml of biotinylated human D374Y PCSK9 was incubated with 15 micro liters of hybridoma exhaust supernatant in Nunc polypropylene plates and the exhaust supernatant concentration was diluted 1:5. The plates were then pre-incubated for about 1 hour and 30 minutes at room temperature. Next, the plates were washed using the Titertek plate washer operated using a 3-cycle wash. 50 μl/well of the pre-incubated mixture was transferred onto the LDLR coated ELISA plates and incubated for 1 hour at room temperature. To detect LDLR-bound b-PCSK9, 40 μl/well streptavidin HRP at 500 ng/ml in assay diluent was added to the plates. The plates were incubated for 1 hour at room temperature. The plates were again washed using a Titertek plate washer. A 3-cycle wash was performed. Finally, 40 μl/well of One-step TMB (Neogen, Lexington, Ky.) was added to the plate and was quenched with 40 μl/well of 1N hydrochloric acid after 30 minutes at room temperature. OD's were read immediately at 450 nm using a Titertek plate reader.
The receptor ligand assay was then repeated using the mutant enzyme on the 384 member subset of neutralizers identified in the first large scale receptor ligand inhibition assay. The same protocol was employed in the screen of the 384 member blocker subset assay as was done in the large scale receptor ligand blocking screen.
Limiting dilution was used to isolate a manageable number of clones from each line. […] The isolated clones were each expanded in 50-100 ml of hybridoma media and allowed to grow to exhaustion, (i.e., less than about 10% cell viability). The concentration and potency of the antibodies to PCSK9 in the supernatants of those cultures were determined by ELISA and by in vitro functional testing, as described herein.

In the next assay the target is D374Y PCSK9/LDLR binding (Homo sapiens, UniProt Q8NBP7, D374Y). As to the kind of experiment: Blocking D374Y PCSK9/LDLR binding (Example 9). Particulars: 20 ng/ml biotinylated D374Y PCSK9. On the procedure:
Clear 384 well plates (Costar) were coated with 2 micrograms/ml of goat anti-LDL receptor antibody (R&D Systems) diluted in buffer A (100 mM sodium cacodylate, pH 7.4). Plates were washed thoroughly with buffer A and then blocked for 2 hours with buffer B (1% milk in buffer A). After washing, plates were incubated for 1.5 hours with 0.4 micrograms/ml of LDL receptor (R&D Systems) diluted in buffer C (buffer B supplemented with 10 mM CaCl2). […] The LDL receptor containing plates were washed and the biotinylated D374Y PCSK9/antibody mixture was transferred to them and incubated for 1 hour at room temperature. Binding of the biotinylated D374Y to the LDL receptor was detected by incubation with streptavidin-HRP (Biosource) at 500 ng/ml in buffer C followed by TMB substrate (KPL). The signal was quenched with 1N HCl and the absorbance read at 450 nm.

In assay [2] the target is D374Y human PCSK9 (HepG2 cells) (Homo sapiens, UniProt Q8NBP7, D374Y). As to the kind of experiment: Cell LDL uptake assay (Example 10). As to conditions: 2 μg/ml D374Y human PCSK9, HepG2 cells. In kind it is cell-based. On the procedure:
Human HepG2 cells were seeded in black, clear bottom 96-well plates (Costar) at a concentration of 5×10^5 cells per well in DMEM medium (Mediatech, Inc) supplemented with 10% FBS and incubated at 37° C. (5% CO2) overnight. To form the PCSK9 and antibody complex, 2 μg/ml of D374Y human PCSK9 was incubated with various concentrations of antibody diluted in uptake buffer (DMEM with 1% FBS) or uptake buffer alone (control) for 1 hour at room temperature. After washing the cells with PBS, the D374Y PCSK9/antibody mixture was transferred to the cells, followed by LDL-BODIPY (Invitrogen) diluted in uptake buffer at a final concentration of 6 μg/ml. After incubation for 3 hours at 37° C. (5% CO2), cells were washed thoroughly with PBS and the cell fluorescence signal was detected by Safire™ (TECAN) at 480-520 nm (excitation) and 520-600 nm (emission).

Assay [3] concerns wild type (WT) mice (C57BL/6). Kind of assay: Serum cholesterol and HDL in 13 day study. In kind it is in vivo, mouse. As to conditions: 10 mg/kg, repeated 13 day study (FIG. 10C). The source says: Male WT mice (C57BL/6 strain, aged 9-10 weeks, 17-27 g) obtained from Jackson Laboratory (Bar Harbor, Me.) were fed a normal chow (Harland-Teklad, Diet 2918) through out the duration of the experiment. […] Naïve mice were also set aside as naïve control group.
Animals were sacrificed and livers were extracted and prepared as in Example 11.
The HDL levels for the animals in Example 13 were also examined.

Broadly, the IC50 is the point on the concentration scale where inhibition reaches its midpoint. Higher therefore signals a need for much substance.

B1: 27B2: anti-PCSK9 antibody; light/heavy variable region SEQ ID NO 13/87 (antibody, listed as Homo sapiens, V domains shown)
VH: QVQLQESGPGLVKPSQTLSLTCTVSGGSISSGGYYWSWIRQHPGKGLEWIGYIYNSGSTYYNPSLKSRVTISVDTSKNQFSLKLSSVTAADTAVYYCAREDTAMVPYFDYWGQGTLVTVSS
VL: QSVLTQPPSVSGAPGQRVTISCTGSSSNIGAHYDVHWYQQVPGTAPKLLIYGNTYRPSGVPDRFSGSKSGTSASLAITGLQAEDEADYYCQSYDNSLSGVVFGGGTKLTVL
Take B1: the “neutralizing ability (blocking PCSK9/LDLR)” value in assay [1] is “non-neutralizing”.

B2: 21B12 IgG2: human 21B12 IgG2 antibody produced from transfected cells (antibody)
heavy: QVQLVQSGAEVKKPGASVKVSCKASGYTLTSYGISWVRQAPGQGLEWMGWVSFYNGNTNYAQKLQGRGTMTTDPSTSTAYMELRSLRSDDTAVYYCARGYGMDVWGQGTTVTVSSASTKGPSVFPLAPCSRSTSESTAALGCLVKDYFPEPVTVSWNSGALTSGVHTFPAVLQSSGLYSLSSVVTVPSSNFGTQTYTCNVDHKPSNTKVDKTVERKCCVECPPCPAPPVAGPSVFLFPPKPKDTLMISRTPEVTCVVVDVSHEDPEVQFNWYVDGVEVHNAKTKPREEQFNSTFRVVSVLTVVHQDWLNGKEYKCKVSNKGLPAPIEKTISKTKGQPREPQVYTLPPSREEMTKNQVSLTCLVKGFYPSDIAVEWESNGQPENNYKTTPPMLDSDGSFFLYSKLTVDKSRWQQGNVFSCSVMHEALHNHYTQKSLSLSPGK
light: QSALTQPASVSGSPGQSITISCTGTSSDVGGYNSVSWYQQHPGKAPKLMIYEVSNRPSGVSNRFSGSKSGNTASLTISGLQAEDEADYYCNSYTSTSMVFGGGTKLTVLQPKAAPSVTLFPPSSEELQANKATLVCLISDFYPGAVTVAWKADSSPVKAGVETTTPSKQSNNKYAASSYLSLTPEQWKSHRSYSCQVTHEGSTVEKTVAPTECS
On to B2, for which the IC50 with D374Y PCSK9/LDLR binding is 0.17 nM; in assay [2], 13.3 nM.

B3: 13B5: anti-PCSK9 antibody; light/heavy variable region SEQ ID NO 42/69 (antibody, listed as Homo sapiens, V domains shown)
VH: EVQLLESGGGLVQPGGSLRLSCAASGFTFSSYAMSWVRQAPGKGLEWVSTISGSGGRTYYADSVKGRFTISRDNSKNTLYLQMNSLRAEDTAVYYCAKEVGSPFDYWGQGTLVTVSS
VL: QSVLTQPPSVSAAPGQKVTISCSGSNSNIGNNYVSWYQQLPGTAPKLLIYDNNKRPSGIPDRFSGSNSGTSATLGITGLQTGDEADYYCGTWDSSLSAVVFGGGTKLTVL
Take B3: the “neutralizing ability (blocking PCSK9/LDLR)” value in assay [1] is on record as “non-neutralizing”.

B4: 16F12: anti-PCSK9 antibody; light/heavy variable region SEQ ID NO 35/79 (antibody, listed as Homo sapiens, V domains shown)
VH: QVHLVESGGGVVQPGRSLRLSCAASGFTFNSFGMHWVRQAPGKGLEWVALIWSDGSDEYYADSVKGRFTISRDNSKNTLYLQMNSLRAEDTAVYYCARAIAALYYYYGMDVWGQGTTVTVSS
VL: QSVLTQPPSVSAAPGQKVTISCSGSSSNIGNNFVSWYQQLPGTAPKLLIYDYNKRPSGIPDRFSGSKSGTSATLGITGLQTGDEADYYCGTWDSSLSAYVFGTGTRVTVL
On to B4, for which the “total serum cholesterol after a single dose” value in assay [3] is “significant and substantial decreases in total serum cholesterol”.

B5: 13H1: anti-PCSK9 antibody; light/heavy variable region SEQ ID NO 28/91 (antibody, listed as Homo sapiens, V domains shown)
VH: QVQLQQSGPGLVKPSQTLSLTCAISGDSVSSNSAAWNWIRQSPSRGLEWLGRTYYRSKWYKNYSVSVKSRITINPDTSKNQFSLQLNSVTPGDTAVYYCARGGPTAAFDYWGQGTLVTVSS
VL: LSALTQPASVSGSPGQSITISCTGTSSDVGNYNLVSWYQQYSGKAPKLMIYEVSKRPSGVSNRFSGSKSGNTASLTISGLQAEDEADYYCCSYAGSSTLVFGGGTKLTVL
Consider B5, for which the “neutralizing ability (blocking PCSK9/LDLR)” value in assay [1] was “non-neutralizing”.

B6: 3B6: anti-PCSK9 antibody; light/heavy variable region SEQ ID NO 46/60 (antibody, listed as Homo sapiens, V domains shown)
VH: QVQLVQSGAEVKKPGASVKVSCKASGYTFTSYGISWVRQAPGQGLEWMGWISTYNGNTNYAQKVQGRVTMTTDTSTSTAYMELRSLRSDDTAVYYCARGYTRDYWGQGTLVTVSS
VL: QPVLTQPLFASASLGASVTLTCTLSSGYSSYEVDWYQQRPGKGPRFVMRVDTGGIVGSKGEGIPDRFSVLGSGLNRYLTIKNIQEEDESDYHCGADHGSGTNFVVVFGGGTKLTVL
Consider B6, for which the “neutralizing ability (blocking PCSK9/LDLR)” value in assay [1] is listed as “weak neutralizers”.

B7: 25A7: anti-PCSK9 antibody; light/heavy variable region SEQ ID NO 15/58; 25A7.3 referred to as 25A7 (antibody, listed as Homo sapiens, V domains shown)
VH: QVQLVQSGAEVKKPGASVKVSCKASGYTFPSYGISWVRQAPGQGLEWMGWISAYNGNTNYAEKLQGRVTMTTDTSTSTAYMEVRSLRSDDTAVFYCARGYVMDVWGQGTTVTVSS
VL: QSALTQPASVSGSPGQSITISCTGTSSDVGRYNSVSWYQHHPGKAPKVMIYEVSNRPSGVSTRFSGSKSGNTASLTISGLQAEDEADYYCSSYTSSSVVFGGGTKLTVL
Consider B7, for which the “neutralizing ability (blocking PCSK9/LDLR)” value in assay [1] is given as “neutralizing”.
